The source of these data is paper PMC4865869.

For assay [1], the target named is GST-fused RasC (Dictyostelium) (UniProt P32253). As to the kind of experiment: pull-down; GFP-FRB/Kin^TOR with active GST-fused GTPase (GppNHp-loaded or constitutively active mutant), 25 ug of each, 50 mM Tris-Cl, 150 mM NaCl, 5 mM MgCl2, 1 mM beta-mercaptoethanol, pH 7.5; GSH resin; washes with 500 mM NaCl; GFP and GST immunoblotting. In general terms: A western blot detects proteins with antibodies after separation by electrophoresis.

For assay [2], the target named is constitutively active RasC mutant (RasC^CA, G62L) (Dictyostelium) (UniProt P32253). The description is as above.
The target in assay [3] is Rap1 pre-loaded with mGppNHp (GDI assay) (Dictyostelium) (UniProt P18613). In words: guanine nucleotide dissociation inhibition (GDI) assay; Rap1 or RasG pre-loaded with fluorescent mGppNHp, excess unlabeled GppNHp, with or without 1 uM RIP3^RBD; kobs of fluorescence decay; without effector kobs Rap1 5.0 x 10^-5 s^-1, RasG 5.9 x 10^-5 s^-1.
UniProt P18613, sequence (P18613 whole entry): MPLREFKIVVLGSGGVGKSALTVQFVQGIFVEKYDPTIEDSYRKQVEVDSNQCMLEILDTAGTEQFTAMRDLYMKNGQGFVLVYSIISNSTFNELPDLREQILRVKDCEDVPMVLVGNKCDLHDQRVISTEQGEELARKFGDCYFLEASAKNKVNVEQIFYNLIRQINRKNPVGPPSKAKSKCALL

As to “GFP-fused TOR catalytic domain (FRB/Kin^TOR, aa 1820-2380) (from UniProt Q86C65 1820-2380) (domain or fragment)”, the binding efficiency (percent) in assay [1] and in assay [2] was 9% each time.

In turn, “RIP3^RBD (aa 511-838) (domain or fragment)” returned a kobs of mGppNHp dissociation from Rap1 with 1 uM RIP3^RBD in assay [3] of 1e-07 s⁻¹.
